According to PMC1978536, “MVB-12, a Fourth Subunit of Metazoan ESCRT-I, Functions in Receptor Downregulation” (PLoS ONE, 2007):

Assays:
[1] = target: TSG-101 (C. elegans, endogenous) (C. elegans (endogenous in embryos)); assay: SEC + other: sucrose density gradient sedimentation; C. elegans embryo extracts desalted into 50 mM Na phosphate pH 7.0, 250 mM NaCl, 1 mM EDTA, 1 mM beta-mercaptoethanol; Superose 6 and 5-20% sucrose gradient; fractions blotted for TSG-101 and MVB-12
[2] = target: T1, TSG-101:6xHIS (recombinant C. elegans TSG-101) (C. elegans, UniProt O76258 1-425); assay: SEC + other: sucrose density gradient sedimentation; TSG-101:6xHIS, VPS-28, VPS-37 and MVB-12 co-expressed in E. coli, purified on nickel resin; Superose 6 in 50 mM Na phosphate pH 7.0, 250 mM NaCl, 1 mM EDTA, 1 mM beta-mercaptoethanol; 5-20% sucrose gradient; Stokes radius and S-value combined to a native molecular weight; conditions: both partners purified
T1 construct: open reading frame amplified from N2 cDNA; source: E. coli BL21 (DE3), co-expressed from a polycistronic vector, purified (Ni-NTA, Superose 6); not shown: 6xHis, C-terminal, kept
T1 sequence (looked up): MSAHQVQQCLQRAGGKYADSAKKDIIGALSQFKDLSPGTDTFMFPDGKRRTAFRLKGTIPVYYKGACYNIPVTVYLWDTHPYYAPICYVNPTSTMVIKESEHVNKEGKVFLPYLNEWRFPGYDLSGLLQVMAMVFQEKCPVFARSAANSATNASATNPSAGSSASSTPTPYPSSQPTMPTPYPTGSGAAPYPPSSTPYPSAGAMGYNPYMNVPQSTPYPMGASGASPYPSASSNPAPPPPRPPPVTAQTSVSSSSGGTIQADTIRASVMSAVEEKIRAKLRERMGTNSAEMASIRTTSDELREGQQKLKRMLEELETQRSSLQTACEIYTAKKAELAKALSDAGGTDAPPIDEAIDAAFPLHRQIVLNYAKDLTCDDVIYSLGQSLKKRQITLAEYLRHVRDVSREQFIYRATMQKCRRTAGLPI

[3] = target: T1, TSG-101:6xHIS (recombinant C. elegans …); assay: SEC + other: sucrose density gradient sedimentation; TSG-101:6xHIS, VPS-28 and VPS-37 co-expressed in E. coli, purified on nickel resin; Superose 6 in 50 mM Na phosphate pH 7.0, 250 mM NaCl, 1 mM EDTA, 1 mM beta-mercaptoethanol; 5-20% sucrose gradient; Stokes radius and S-value combined to a native molecular weight; conditions: both partners purified

## MVB-12 (C. elegans, endogenous) (from UniProt Q17687 1-277) (natural protein)
[1]
  stoichiometry N: 1

B1: MVB-12 (recombinant C. elegans) (natural protein, UniProt Q17687 1-277, looked up)
chain: MTELEFSADNAAPVIPITAICIVADKNKAPRGFLPIIKCQDDQTEADLWRDGFFTINRQVRYICTSTEIPDSNIKTPVQVITNLIIVRESDPIPHGYVAIDYTADSREKSLRKKYVCIRTEPRDRVVDAIGEIIILGKTKKVPRDYTSAGDIDSLLICYKVISIPQTYGIQTSNSTSNIESQAAGGLYPGLPNLSNSTPANLDVTGSSSNSAFTMKNAGAPRVKAIDGIDFKVNPMFVNSSGSNNSSQLPDLSQFNDLDRLDDKYNYSYATEHAVLS
notes: MVB-12 (C06A6.3), C. elegans; open reading frame amplified from N2 cDNA; 277 amino acids as printed
[2]
  stoichiometry N: 1

B2: VPS-28 (recombinant C. elegans) (natural protein, UniProt Q9NA26 1-210, looked up)
chain: MSSQNANLMREVRLFENHSEREQMENLSELFAVLNALEHLEKMFSRDHVSADEYKSECFKLIDQYKVTMRLVHGATSIEDFAKKYRLHCPAAIERIREGRPITVKDDQGNVLKHIASIVEQFITFLDALRLNTRAVDDLYPGLDDLYNAINTTSRVPIDAIVTTKVKKWHDRLSSMAASDEISDEDARQMIFDVESAYQAFNKALNELKH
notes: VPS-28, C. elegans; open reading frame amplified from N2 cDNA
[3]
  stoichiometry N: 1

B3: VPS-37 (recombinant C. elegans) (natural protein, UniProt O44158 1-234, looked up)
chain: MFSQNPYESHVDVAVSAASANLRNMTNEQLISLLDDDALLESIIVNLPQVRSMPTDKESALAANKSLAEWNLAQKPRIDAAKTQTVDLYDQVKKLQGEVAVLKSQLDSVSSSKSLDTTSSLMQVAAQEADDDAEALFTQFENGEISVEIFLKQFKDKKTIAHLRKIKSDRLAALLREQTYSSYAQPTVPPPMPHAQPGYPTGNHMPGIGNIQFGSGYSGYPNISQPSAGRHPFF
notes: VPS-37 (CD4.4), C. elegans; open reading frame amplified from N2 cDNA
[3]
  stoichiometry N: 1
